# Results as given in patent publication US20260001937A1, “NOVEL RECOMBINANT FIBRINOGEN VARIANTS FOR FIBRIN SEALANTS FOR SURGICAL WOUND CARE” (Julius-Maximilians-Universität Würzburg, priority 2022, published 2026).
# B1: factor XIIIa (Fibrogammin, CSL Behring) (protein)
# chain: GVNLQEFLNVTSVHLFKERWDTNKVDHHTDKYENNKLIVRRGQSFYVQIDFSRPYDPRRDLFRVEYVIGRYPQENKGTYIPVPIVSELQSGKWGAKIVMREDRSVRLSIQSSPKCIVGKFRMYVAVWTPYGVLRTSRNPETDTYILFNPWCEDDAVYLDNEKEREEYVLNDIGVIFYGEVNDIKTRSWSYGQFEDGILDTCLYVMDRAQMDLSGRGNPIKVSRVGSAMVNAKDDEGVLVGSWDNIYAYGVPPSAWTGSVDILLEYRSSENPVRYGQCWVFAGVFNTFLRCLGIPARIVTNYFSAHDNDANLQMDIFLEEDGNVNSKLTKDSVWNYHCWNEAWMTRPDLPVGFGGWQAVDSTPQENSDGMYRCGPASVQAIKHGHVCFQFDAPFVFAEVNSDLIYITAKKDGTHVVENVDATHIGKLIVTKQIGGDGMMDITDTYKFQEGQEEERLALETALMYGAKKPLNTEGVMKSRSNVDMDFEVENAVLGKDFKLSITFRNNSHNRYTITAYLSANITFYTGVPKAEFKKETFDVTLEPLSFKKEAVLIQAGEYMGQLLEQASLHFFVTARINETRDVLAKQKSTVLTIPEIIIKVRGTQVVGSDMTVTVEFTNPLKETLRNVWVHLDGPGVTRPMKKMFREIRPNSTVQWEEVCRPWVSGHRKLIASMSSDSLRHVYGELDVQIQRRPSM
# Legend:
# human plasmin = target: T1, human plasmin (Homo sapiens, UniProt P00747); test: Plasmin digest in solution of Fbg and rFbg variants, high-resolution ESI-MS of γ-chain cleavage sites; format: biochemical; conditions: for plasmin cleavage at the 4 sites K88, K111, K382, K399 of the γ-chain: fibrinogen solution 1 mg/mL, plasmin 0.5 U/mL, 24 h, 37° C., high-resolution ESI-MS; for plasmin cleavage at position 382 of the γ-chain (FIG. 5): peptide fragments after plasmin and additional ProAlanase cleavage, both cleaved and non-cleaved peptides detected
# T1 construct: Active plasmin is a serine protease that is derived from its zymogen plasminogen; purchased Merck
# T1 sequence (P00747 97-580 limits assumed): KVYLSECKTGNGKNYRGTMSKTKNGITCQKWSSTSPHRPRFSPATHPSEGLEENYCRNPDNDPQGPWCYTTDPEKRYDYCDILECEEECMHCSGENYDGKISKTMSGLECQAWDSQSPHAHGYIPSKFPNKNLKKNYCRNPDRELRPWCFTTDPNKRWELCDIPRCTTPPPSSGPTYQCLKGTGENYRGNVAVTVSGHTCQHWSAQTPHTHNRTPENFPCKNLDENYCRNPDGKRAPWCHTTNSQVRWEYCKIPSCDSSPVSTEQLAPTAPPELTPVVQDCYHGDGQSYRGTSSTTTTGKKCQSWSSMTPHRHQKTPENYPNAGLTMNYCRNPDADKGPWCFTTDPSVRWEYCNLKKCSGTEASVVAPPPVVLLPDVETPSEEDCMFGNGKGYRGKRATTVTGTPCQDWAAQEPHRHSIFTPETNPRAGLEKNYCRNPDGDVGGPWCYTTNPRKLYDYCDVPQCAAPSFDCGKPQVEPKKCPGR
# T1 sequence (P00747 581-810 limits assumed): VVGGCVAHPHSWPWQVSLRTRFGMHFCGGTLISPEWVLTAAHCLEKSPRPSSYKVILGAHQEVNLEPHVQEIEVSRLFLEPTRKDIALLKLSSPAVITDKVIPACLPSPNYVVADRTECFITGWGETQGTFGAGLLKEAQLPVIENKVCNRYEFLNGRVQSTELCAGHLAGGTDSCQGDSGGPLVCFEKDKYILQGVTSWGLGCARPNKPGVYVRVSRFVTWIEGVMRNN
# Method: In order to analyze plasmin digestion of mutated restriction sites, 100 μL of human plasmin (Merck) (0.5 U/mL) were added to 100 μg of Fbg and rFbg (Ala and His) and incubated for 24 h at 37° C. and 130 rpm in order to ensure complete cleavage. Afterwards, samples were stored at −80° C. For the analysis of the time-dependent cleavage site determination and quantification of plasmin, fibrin gels (20 mg/mL) were incubated with different plasmin concentrations ranging from 0.005 mU/mL-0.5 U/mL. Samples were taken at different timepoints from 1 min to 24 h. PMSF (1 mM) was added to the sample and heated at 95° C. for 10 minutes to ensure plasmin inactivation. Samples were stored at −80° C.
# Proteins were digested either with plasmin alone (vide supra) or with plasmin and ProAlanase (ProAla) (Promega) with slight differences in handling. For all digests, all samples (WT/HIS/ALA) were brought to a concentration of 0.2 μg/μL in 50 mM tris buffer. For “plasmin only” samples were immediately purified (see below). For ProAla (Promega), 50 μL of 8M Guanidinium Hydrochloride were added to 10 μg (50 μL) of protein stock solution and briefly heated to ensure denaturation. To enable specific ProAla digest the solution was acidified using 900 μL of 32 mM HCl. After pH was checked to be in the range of 1-1.5, ProAla was added (1:50 ProAla:Protein; […]), proteolysis was allowed to continue for 2.5 h. Afterwards, pH was set to slightly basic by addition of 0.5-1 mL of 2 M Tris buffer. In the next step, the samples were immediately purified.
# Precursor Tolerance of 15 ppm, fragment mass tolerance of 20 ppm, digestion C-terminal of K (non-specific), modifications are concurrent with the PMI-Byos recommendations for sequence variant analysis workflows (two rare and common modifications allowed).
# Precursor Tolerance of 15 ppm, fragment mass tolerance of 20 ppm, digestion C-terminal of A and P (non-specific), modifications are concurrent with the PMI-Byos recommendations for sequence variant analysis workflows (two rare and common modifications allowed).
# The α-chain plays an important part in the gelation process of fibrin. Due to the truncated α-chain gel formation with rFbg was not possible, as the production of intact complex (compare above) was still ongoing. Therefore, plasmin digests in solution with WT as well as both Ala- and His-rFbg mutants was performed to investigate if the inserted mutations are limiting proteolytic efficiency of plasmin at the respective cleavage sites. Plasmin was added to the fibrinogen solution (1 mg/mL) to a final concentration of 0.5 U/mL and the mixture was incubated for 24 h to ensure complete cleavage of fibrinogen. […] At some positions both cleaved and non-cleaved peptides were detected, however no cleavage did contain a mutation. This might be due to residual WT-Fbg peptides either on the column (carryover) or through residual WT-Fbg at any point in the workup.
# [1] = test system: ExpiCHO-S cell supernatant (degradation of fibrinogen α-chain); test: Screening of inhibitors for Fbg degradation in ExpiCHO-S cell supernatant (SDS-PAGE); format: biochemical, Chinese hamster; conditions: commercial human Fbg 3.3 mg/mL, 37 C, several days, Aprotinin 50 μg/mL, EDTA 4 mM, 1,10 Phenanthroline 1 mM, UK 370106 100 μM
# Method: ExpiCHO-S cells were cultured to a density of 6×10^6 cells/mL. Afterwards, cells were centrifuged for 4 min at 1000 rpm at RT and the supernatant was collected. Commercially available fibrinogen (SigmaAldrich) was mixed with the supernatant to a final concentration of 3.3 mg/mL and a volume of 200 μl. The mixture incubated at 37° C. and 750 rpm and samples were taken at 0, 24 and 48 h. For the screening the different inhibitors were added to the mixture (final concentrations: PMSF: 1 mM; Aprotinin: 50 μg/mL; GM6001: 25 μM; EDTA: 4 mM; 1,10 Phenanthroline: 1 mM; UK 370106: 100 μM). As control fibrinogen was incubated in 10 mM Tris/HCl, 150 mM NaCl (pH 7.5) under the same conditions. For the visualization of fibrinogen degradation, 20 μL of the mixtures were analyzed using SDS-PAGE.
# Commercially available human Fbg was incubated with the supernatant taken from the CHO cells used for the expression and incubated the protein at 37 C for several days.
# ExpiCHO-S cells = conditions: literature report (ref. 51); cited from earlier work
# His-rFbgH433R435 [2] = test system: His-rFbgH433R435
# His-rFbgH433R435 [3] = target: T2, His-rFbgH433R435
# T2 chain 1: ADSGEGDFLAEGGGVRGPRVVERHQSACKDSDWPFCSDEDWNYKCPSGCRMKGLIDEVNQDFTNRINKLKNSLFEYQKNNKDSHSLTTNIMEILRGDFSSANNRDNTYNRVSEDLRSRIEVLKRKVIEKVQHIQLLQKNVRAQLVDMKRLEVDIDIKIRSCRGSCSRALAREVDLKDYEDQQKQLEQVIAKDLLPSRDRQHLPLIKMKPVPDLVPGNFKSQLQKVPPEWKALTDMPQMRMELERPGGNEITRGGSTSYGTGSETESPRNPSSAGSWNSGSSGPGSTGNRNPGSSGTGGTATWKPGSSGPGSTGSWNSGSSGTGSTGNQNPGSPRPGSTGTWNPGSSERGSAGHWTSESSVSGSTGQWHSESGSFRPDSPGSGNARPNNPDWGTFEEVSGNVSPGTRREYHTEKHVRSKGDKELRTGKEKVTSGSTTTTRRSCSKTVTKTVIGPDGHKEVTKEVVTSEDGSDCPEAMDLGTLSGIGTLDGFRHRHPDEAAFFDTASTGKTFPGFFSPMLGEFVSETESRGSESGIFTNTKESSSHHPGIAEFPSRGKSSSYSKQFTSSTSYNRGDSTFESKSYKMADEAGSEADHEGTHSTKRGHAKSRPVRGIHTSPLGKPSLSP
# T2 chain 2: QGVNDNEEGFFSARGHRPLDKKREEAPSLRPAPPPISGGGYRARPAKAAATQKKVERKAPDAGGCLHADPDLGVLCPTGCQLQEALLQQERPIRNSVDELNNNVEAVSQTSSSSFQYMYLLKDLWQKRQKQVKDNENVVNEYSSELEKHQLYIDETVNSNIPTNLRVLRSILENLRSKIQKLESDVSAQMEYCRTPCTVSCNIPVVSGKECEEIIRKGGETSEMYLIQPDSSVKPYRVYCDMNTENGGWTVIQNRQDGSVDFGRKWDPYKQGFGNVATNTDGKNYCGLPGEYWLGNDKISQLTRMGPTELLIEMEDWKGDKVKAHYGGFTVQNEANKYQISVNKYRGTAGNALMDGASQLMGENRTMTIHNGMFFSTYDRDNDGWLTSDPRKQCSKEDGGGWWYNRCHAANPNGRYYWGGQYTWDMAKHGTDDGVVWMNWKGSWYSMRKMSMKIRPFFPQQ
# T2 chain 3: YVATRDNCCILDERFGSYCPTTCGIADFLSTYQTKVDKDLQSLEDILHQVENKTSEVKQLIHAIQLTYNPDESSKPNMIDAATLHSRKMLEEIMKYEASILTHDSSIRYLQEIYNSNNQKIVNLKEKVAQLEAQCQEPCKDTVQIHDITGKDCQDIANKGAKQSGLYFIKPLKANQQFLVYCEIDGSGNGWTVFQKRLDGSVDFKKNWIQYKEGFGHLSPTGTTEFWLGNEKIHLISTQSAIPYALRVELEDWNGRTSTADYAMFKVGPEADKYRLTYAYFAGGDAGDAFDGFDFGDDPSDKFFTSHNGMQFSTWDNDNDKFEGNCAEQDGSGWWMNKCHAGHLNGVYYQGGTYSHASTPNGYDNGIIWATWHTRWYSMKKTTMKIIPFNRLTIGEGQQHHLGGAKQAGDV
Molecule,"plasmin cleavage at the 4 sites K88, K111, K382, K399 of the γ-chain (human plasmin)",state of the Fbg α-chain after incubation with CHO cell supernatant plus inhibitor [1],other results
"Ala-rFbg: recombinant fibrinogen of Aα-, Bβ- and γ-chain with γ-chain K88A, K111A, K382A, K399A",no cleavage was detected,,plasmin cleavage at position 382 of the γ-chain (FIG. 5) (human plasmin): partial cleavage
"COC[C@@H](NC(=O)[C@@H](NC(=O)[C@H](CCCc1ccc(-c2ccccc2)c(C)c1)CC(=O)O)C(C)(C)C)c1ccccc1 [UK 370106, (βR)-β-[[[(1 S)-1-[[[(1 S)-2-Methoxy-1-phenylethyl]amino]carbonyl]-2,2-dimethylpropyl]amino]carbonyl]-2-methyl-[1,1′-biphenyl]-4-hexanoic acid]",,intact α-chain was detected,
aprotinin,,truncated α-chain is also visible,effect of inhibitor addition during CHO cell expression on proteolytic degradation of the fibrinogen α-chain (ExpiCHO-S cells): did inhibit proteolytic degradation
"c1cnc2c(c1)ccc1cccnc12 [1,10 Phenantroline, 1,10 Phenanthroline]",,intact α-chain was detected,
"WT: commercially available human fibrinogen (SigmaAldrich), wild type, used as control [reference compound]",could be detected,,
"His-rFbg: recombinant fibrinogen of Aα-, Bβ- and γ-chain with γ-chain K88H, K111H, K382H, K399H",no cleavage was detected,,plasmin cleavage at position 382 of the γ-chain (FIG. 5) (human plasmin): partial cleavage
O=C(O)CN(CCN(CC(=O)O)CC(=O)O)CC(=O)O [EDTA],,intact α-chain was detected,
thrombin,,,"thrombin-catalyzed fibrin polymerization, turbidity at 350 nm (His-rFbgH433R435 [2]): thrombin-induced fibrin polymerization of His-rFbgH433R435 was slightly reduced compared with control (pFbg), with a similar lag time and comparable absorption"
B1,,,"FXIIIa-catalyzed cross-linking of gamma-chains, reducing SDS-PAGE (His-rFbgH433R435 [3]): the cross-linked γ-γ-dimer bands of rFbgH433R435 were visible after 5 min, indicating rapid lateral linkage"
